Read-outs that look alike come from different tables or passages of the source.
T1: DNA polymerase alpha catalytic subunit POLA1 (334-1462) (human, UniProt P09884 334-1462)
T1 sequence (looked up): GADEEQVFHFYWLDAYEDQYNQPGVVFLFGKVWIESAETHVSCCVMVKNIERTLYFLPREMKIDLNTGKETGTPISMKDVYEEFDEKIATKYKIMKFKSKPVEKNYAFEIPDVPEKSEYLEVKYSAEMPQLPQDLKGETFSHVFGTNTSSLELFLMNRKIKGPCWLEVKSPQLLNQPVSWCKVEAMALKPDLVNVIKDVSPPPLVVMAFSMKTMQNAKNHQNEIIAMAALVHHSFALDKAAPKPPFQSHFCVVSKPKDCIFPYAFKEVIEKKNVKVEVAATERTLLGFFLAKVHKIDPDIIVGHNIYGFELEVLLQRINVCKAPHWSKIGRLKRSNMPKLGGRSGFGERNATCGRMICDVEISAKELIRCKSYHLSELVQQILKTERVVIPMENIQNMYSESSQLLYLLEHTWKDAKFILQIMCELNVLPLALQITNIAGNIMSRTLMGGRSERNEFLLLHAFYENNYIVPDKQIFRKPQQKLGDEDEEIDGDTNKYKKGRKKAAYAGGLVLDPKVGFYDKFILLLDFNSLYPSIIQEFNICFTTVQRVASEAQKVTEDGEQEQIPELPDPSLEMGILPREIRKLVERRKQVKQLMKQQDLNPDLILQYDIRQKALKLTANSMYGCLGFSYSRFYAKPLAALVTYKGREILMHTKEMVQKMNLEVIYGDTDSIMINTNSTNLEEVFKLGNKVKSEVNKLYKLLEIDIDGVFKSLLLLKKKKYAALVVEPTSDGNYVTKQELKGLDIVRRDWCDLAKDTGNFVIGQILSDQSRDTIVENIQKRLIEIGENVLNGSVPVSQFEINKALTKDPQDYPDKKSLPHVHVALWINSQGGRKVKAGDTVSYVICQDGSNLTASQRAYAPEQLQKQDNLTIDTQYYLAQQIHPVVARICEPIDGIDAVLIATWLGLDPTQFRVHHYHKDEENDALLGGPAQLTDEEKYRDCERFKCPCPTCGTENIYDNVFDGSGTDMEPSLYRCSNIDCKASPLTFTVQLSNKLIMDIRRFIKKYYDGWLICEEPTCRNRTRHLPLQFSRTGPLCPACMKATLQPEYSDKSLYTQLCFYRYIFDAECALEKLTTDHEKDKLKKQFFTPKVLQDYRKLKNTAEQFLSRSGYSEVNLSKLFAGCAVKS

B1: primase regulatory subunit PRIM2 (1-509) (natural protein, human, UniProt P49643 1-509, looked up)
chain: MEFSGRKWRKLRLAGDQRNASYPHCLQFYLQPPSENISLIEFENLAIDRVKLLKSVENLGVSYVKGTEQYQSKLESELRKLKFSYRENLEDEYEPRRRDHISHFILRLAYCQSEELRRWFIQQEMDLLRFRFSILPKDKIQDFLKDSQLQFEAISDEEKTLREQEIVASSPSLSGLKLGFESIYKIPFADALDLFRGRKVYLEDGFAYVPLKDIVAIILNEFRAKLSKALALTARSLPAVQSDERLQPLLNHLSHSYTGQDYSTQGNVGKISLDQIDLLSTKSFPPCMRQLHKALRENHHLRHGGRMQYGLFLKGIGLTLEQALQFWKQEFIKGKMDPDKFDKGYSYNIRHSFGKEGKRTDYTPFSCLKIILSNPPSQGDYHGCPFRHSDPELLKQKLQSYKISPGGISQILDLVKGTHYQVACQKYFEMIHNVDDCGFSLNHPNQFFCESQRILNGGKDIKKEPIQPETPQPKPSVQKTKDASSALASLNSSLEMDMEGLEDYFSEDS
B2: primase catalytic subunit PRIM1 (1-420) (enzyme, human, UniProt P49642 1-420, looked up)
chain: METFDPTELPELLKLYYRRLFPYSQYYRWLNYGGVIKNYFQHREFSFTLKDDIYIRYQSFNNQSDLEKEMQKMNPYKIDIGAVYSHRPNQHNTVKLGAFQAQEKELVFDIDMTDYDDVRRCCSSADICPKCWTLMTMAIRIIDRALKEDFGFKHRLWVYSGRRGVHCWVCDESVRKLSSAVRSGIVEYLSLVKGGQDVKKKVHLSEKIHPFIRKSINIIKKYFEEYALVNQDILENKESWDKILALVPETIHDELQQSFQKSHNSLQRWEHLKKVASRYQNNIKNDKYGPWLEWEIMLQYCFPRLDINVSKGINHLLKSPFSVHPKTGRISVPIDLQKVDQFDPFTVPTISFICRELDAISTNEEEKEENEAESDVKHRTRDYKKTSLAPYVKVFEHFLENLDKSRKGELLKKSDLQKDF
B3: DNA polymerase alpha accessory B subunit POLA2 (149-598) (domain or fragment, human, UniProt Q14181 149-598, looked up)
chain: SSFSPSATPSQKYNSRSNRGEVVTSFGLAQGVSWSGRGGAGNISLKVLGCPEALTGSYKSMFQKLPDIREVLTCKIEELGSELKEHYKIEAFTPLLAPAQEPVTLLGQIGCDSNGKLNNKSVILEGDREHSSGAQIPVDLSELKEYSLFPGQVVIMEGINTTGRKLVATKLYEGVPLPFYQPTEEDADFEQSMVLVACGPYTTSDSITYDPLLDLIAVINHDRPDVCILFGPFLDAKHEQVENCLLTSPFEDIFKQCLRTIIEGTRSSGSHLVFVPSLRDVHHEPVYPQPPFSYSDLSREDKKQVQFVSEPCSLSINGVIFGLTSTDLLFHLGAEEISSSSGTSDRFSRILKHILTQRSYYPLYPPQEDMAIDYESFYVYAQLPVTPDVLIIPSELRYFVKDVLGCVCVNPGRLTKGQVGGTFARLYLRRPAADGAERQSPCIAVQVVRI

Assays:
Assay in all cases: cryo-EM structure
[1] = target: T1, DNA polymerase alpha catalytic subunit …
[2] = target: T1, DNA polymerase alpha catalytic subunit …; remark: listed apart in the source
[3] = target: B1

binding result [1] | binding result [2] | binding result [3] | Binder
binds | – | – | B1
– | binds | binds | B2
– | binds | – | B3

From doi:10.1101/2023.07.20.549859 (bioRxiv, 2023)
